Laboratory results as given in the emibetuzumab library of Makowski et al. (2022).

B1: VH:VL chains; a variant is named by its letters at X, in order (parent)
chain 1: QVQLVQSGAEVKKPGASVKVSCKASGYTFTDYXMHWVRQAPGQGLEWMGXVNPNXXXTTYNQKFEGRVTMTTDTSTSTAYMELRSLRSDDTAVYYCARXNXLDXWGQGTTVTVSS
chain 2: DIQMTQSPSSLSASVGDRVTITCSVSSSVSSIYLHWYQQKPGKAPKLLIYSTSNLASGVPSRFSGSGSGTDFTLTISSLQPEDFATYYCQVYSGYPLTFGGGTKVEIK

Variants of: B1
Test: yeast display scFab, FACS + sequencing
In short: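 Non-specific binding was called from deep sequencing of sorted yeast cells displaying a heavy-chain CDR mutant scFab library. Cells labelled with anti-Myc and biotinylated ovalbumin (260 μg/mL in PBSB, 3 h, room temperature) or soluble membrane proteins (130 μg/mL, 20 min on ice) were FACS-sorted, collecting the top 25% and bottom 10% of binders from two replicates. A sequence was positive when present in ≥3 of 4 pooled positive samples and absent from all negatives, and negative under the converse rule.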

Variant	non-specific binding call
SKAKGSSD	binds
SKAKGFGV	binds
VKARGSGA	binds
VKARGSGV	binds
VKARGSGD	binds
FKARGSGV	binds
YKAGGSAS	binds
YKEEDSLD	no binding
FKATTSGA	binds
VKEGGSAD	binds
VKAKDAGY	binds
YKARGAVY	binds
VKEKGALD	binds
DKEGGSGV	no binding
DKEEADGV	no binding
VKEGGDGA	no binding
DKEGGDLA	no binding
DKEGGDGY	no binding
DKEGGDGV	no binding
DKEGGDGA	no binding
VKEGGAVV	no binding
SKAKGSAA	binds
VKARGSAV	binds
VKARGSAF	binds
YKARGALS	binds

Variant	non-specific binding call
DKAKGDGS	no binding
SKAGGSAD	binds
VKARNDLV	no binding
FKARGALV	binds
DKEEDSLA	no binding
FKARGSVD	binds
YKEKGDGA	no binding
YKAGGYSD	binds
YKARTSSS	binds
SKAKGAWS	binds
SKAKGAWD	binds
YKARGSGA	binds
YKARGSGS	binds
YKAKGASV	binds
VKARGAGS	binds
VKARGAGV	binds
DKEGGYSV	no binding
FKEAGAVY	binds
FKARDSSA	binds
FKAGGSGA	binds
VKEADAWV	no binding
VKAGGSLY	binds
YKAKGAAD	binds
YKAKGAAA	binds
VKARGAAV	binds

Variant	non-specific binding call
YKAKGAGD	binds
YKARGAAY	binds
YKARGAAD	binds
YKARGSSS	binds
VKATAVAV	binds
YKARSALF	binds
YKARGAGA	binds
YKARGAGV	binds
VKEGGSSA	no binding
DKEGGDVD	no binding
DKEGGDVV	no binding
DKEGGDVA	no binding
DKEGGDAS	no binding
DKEGGDAV	no binding
SKAGGVGA	binds
VKAKGAAA	binds
YKAGGSLF	binds
VKAGSAAA	no binding
YKARGSWD	binds
VKEADDVA	no binding
VKARGSVD	binds
VKARGSVA	binds
AKEADDVA	no binding
YKAKGSAV	binds
FKAGSSGV	binds

Variant	non-specific binding call
FKATTVVD chain 1 S88F	binds
VKARGSLA	binds
AKATADVD	binds
YKEKGAVD	binds
YKEGGSGD	no binding
FKEGNSLD	no binding
FKARDSGD	binds
YKARGSAA	binds
VKAGSDVA	no binding
DKEGGSLD	no binding
DKEGGSLV	no binding
DKEGGAVV	no binding
VKEGGDVA	no binding
VKEGGDVV	no binding
SKAKGSGA	binds
SKAKGSGV	binds
VKEKGAWV	binds
VKEKGAWS	no binding
VKEKGAWY	binds
YKAKGALD	binds
DKEGGFGV	no binding
YKEEDDAV	no binding
DKEGGSSS	no binding
DKEGGSSA	no binding
SKEAGYSV	binds

Variant	non-specific binding call
DKEGGAAD	no binding
DKEGGAAV	no binding
DKEGGAAA	no binding
DKATGDAY	no binding
FKEGGSAA	binds
DKEGGSAD	no binding
YKEGDSGV chain 1 R87K	no binding
YKEGGAGD	no binding
SKEGGVGV	binds
FKARGASV	binds
YKARGAWS	binds
YKARGAWA	binds
YKARGAWD	binds
YKEGAYAD	binds
YKARGSLV	binds
YKARGSLY	binds
YKAGGSGV	binds
FKAKGAWD	binds
SKAGSDVA	no binding
AKAGSYGV	binds
VKARSAGV	binds
